According to paper PMC2756588:

T1: Boi1, P38041
T1 sequence (P38041 1-86, looked up): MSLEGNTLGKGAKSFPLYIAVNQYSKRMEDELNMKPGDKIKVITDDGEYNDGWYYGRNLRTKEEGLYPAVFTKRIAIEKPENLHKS

T2: Bzz1-1, P38822
T2 sequence (P38822 478-572, looked up): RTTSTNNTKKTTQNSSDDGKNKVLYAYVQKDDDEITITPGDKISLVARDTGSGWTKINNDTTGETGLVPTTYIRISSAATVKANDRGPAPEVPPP

T3: Fus1, P11710
T3 sequence (P11710 432-512, looked up): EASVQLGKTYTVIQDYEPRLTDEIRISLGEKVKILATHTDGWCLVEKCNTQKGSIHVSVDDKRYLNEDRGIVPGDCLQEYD

T4: Abp1, P15891
T4 sequence (P15891 535-592, looked up): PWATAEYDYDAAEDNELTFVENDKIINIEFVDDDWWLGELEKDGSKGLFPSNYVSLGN

T5: Pex13, P80667
T5 sequence (P80667 295-386, looked up): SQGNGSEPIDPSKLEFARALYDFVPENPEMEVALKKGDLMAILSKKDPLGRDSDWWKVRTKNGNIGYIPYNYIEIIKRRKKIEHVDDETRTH

T6: Nbp2, Q12163
T6 sequence (Q12163 103-180, looked up): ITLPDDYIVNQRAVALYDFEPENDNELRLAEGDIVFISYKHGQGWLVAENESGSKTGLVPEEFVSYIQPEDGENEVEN

T7: Hof1, Q05080
T7 sequence (Q05080 590-669, looked up): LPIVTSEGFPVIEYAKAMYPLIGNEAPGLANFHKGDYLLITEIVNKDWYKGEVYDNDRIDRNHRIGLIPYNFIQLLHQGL

T8: Lsb1, P53281
T8 sequence (P53281 45-122, looked up): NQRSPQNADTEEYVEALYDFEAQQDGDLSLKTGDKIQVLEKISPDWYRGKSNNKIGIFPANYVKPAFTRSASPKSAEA

T9: Bud14, P27637
T9 sequence (P27637 247-328, looked up): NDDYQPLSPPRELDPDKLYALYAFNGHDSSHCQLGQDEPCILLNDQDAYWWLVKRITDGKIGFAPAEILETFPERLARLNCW

T10: Bzz1-2, P38822
T10 sequence (P38822 568-633, looked up): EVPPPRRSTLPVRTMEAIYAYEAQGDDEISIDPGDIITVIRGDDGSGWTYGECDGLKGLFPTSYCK

T11: Lsb3, P43603
T11 sequence (P43603 385-451, looked up): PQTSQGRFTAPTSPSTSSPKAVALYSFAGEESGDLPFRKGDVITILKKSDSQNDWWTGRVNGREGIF

T12: Sla1-2, P32790
T12 sequence (P32790 60-140, looked up): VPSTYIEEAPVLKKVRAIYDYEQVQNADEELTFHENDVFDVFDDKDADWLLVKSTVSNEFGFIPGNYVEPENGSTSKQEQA

T13: Bbc1, P47068
T13 sequence (P47068 1-78, looked up): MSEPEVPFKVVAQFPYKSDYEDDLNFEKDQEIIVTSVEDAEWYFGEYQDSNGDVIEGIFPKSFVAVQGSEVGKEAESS

T14: Cdc25, P04821
T14 sequence (P04821 50-136, looked up): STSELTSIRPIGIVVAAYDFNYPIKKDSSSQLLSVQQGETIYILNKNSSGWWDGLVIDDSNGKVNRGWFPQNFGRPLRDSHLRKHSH

T15: Hse1, P38753
T15 sequence (P38753 208-285, looked up): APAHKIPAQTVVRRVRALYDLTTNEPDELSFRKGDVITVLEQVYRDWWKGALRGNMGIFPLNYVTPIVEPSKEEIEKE

T16: Cyk3, Q07533
T16 sequence (Q07533 1-83, looked up): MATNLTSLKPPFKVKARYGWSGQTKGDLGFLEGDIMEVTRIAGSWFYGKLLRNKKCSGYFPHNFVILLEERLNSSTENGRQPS

T17: Sla1-3, P32790
T17 sequence (P32790 344-424, looked up): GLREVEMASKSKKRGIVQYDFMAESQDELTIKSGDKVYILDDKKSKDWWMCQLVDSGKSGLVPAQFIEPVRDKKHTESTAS

T18: Boi2, P39969
T18 sequence (P39969 32-116, looked up): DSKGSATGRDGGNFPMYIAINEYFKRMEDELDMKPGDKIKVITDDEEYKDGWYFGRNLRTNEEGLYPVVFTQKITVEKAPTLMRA

T19: Myo5, Q04439
T19 sequence (Q04439 1072-1160, looked up): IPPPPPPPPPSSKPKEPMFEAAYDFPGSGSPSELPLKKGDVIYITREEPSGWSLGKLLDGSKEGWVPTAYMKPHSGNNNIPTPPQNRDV

T20: Lsb4, P32793
T20 sequence (P32793 402-468, looked up): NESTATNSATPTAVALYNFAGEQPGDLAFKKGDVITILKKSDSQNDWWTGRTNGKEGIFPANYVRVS

T21: Pin3, Q06449
T21 sequence (Q06449 53-122, looked up): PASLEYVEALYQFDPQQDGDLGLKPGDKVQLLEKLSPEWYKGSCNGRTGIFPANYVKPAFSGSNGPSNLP

B1: unnamed (peptide)
chain: SGVRLPAPPPPPRRG
B2: unnamed (peptide)
chain: RLPAPPPPPRRGPAP
B3: unnamed (peptide)
chain: RRGPAPPPPPRASRP
B4: unnamed (peptide)
chain: PAPPPPPRASRPTPN
B5: unnamed (peptide)
chain: TKHKAPPPPPPTAET
B6: unnamed (peptide)
chain: LYEAMPPTLPHRDWK

Molecular target: T1, Boi1, P38041
Assay: SPOT array
Conditions: median of control spots 1162

Row | Binder | SPOT intensity
1 | B1 | 0
2 | B2 | 0
3 | B3 | 0
4 | B4 | 1
5 | B5 | 0
6 | B6 | 0

Molecular target: T2, Bzz1-1, P38822
Assay: SPOT array
Conditions: median of control spots 4446

Row | Binder | SPOT intensity
7 | B1 | 6
8 | B2 | 31
9 | B3 | 45
10 | B4 | 7
11 | B5 | 762
12 | B6 | 0

Molecular target: T3, Fus1, P11710
Assay: SPOT array
Conditions: median of control spots 1200

Row | Binder | SPOT intensity
13 | B1 | 0
14 | B2 | 0
15 | B3 | 0
16 | B4 | 1
17 | B5 | 0
18 | B6 | 0

Molecular target: T4, Abp1, P15891
Assay: SPOT array
Conditions: median of control spots 935

Row | Binder | SPOT intensity
19 | B1 | 0
20 | B2 | 0
21 | B3 | 0
22 | B4 | 0
23 | B5 | 0
24 | B6 | 0

Molecular target: T5, Pex13, P80667
Assay: SPOT array
Conditions: median of control spots 1341

Row | Binder | SPOT intensity
25 | B1 | 55
26 | B2 | 75
27 | B3 | 17
28 | B4 | 56
29 | B5 | 0
30 | B6 | 59

Molecular target: T6, Nbp2, Q12163
Assay: SPOT array
Conditions: median of control spots 357

Row | Binder | SPOT intensity
31 | B1 | 0
32 | B2 | 1
33 | B3 | 0
34 | B4 | 0
35 | B5 | 0
36 | B6 | 0

Molecular target: T7, Hof1, Q05080
Assay: SPOT array
Conditions: median of control spots 4086

Row | Binder | SPOT intensity
37 | B1 | 633
38 | B2 | 5
39 | B3 | 2
40 | B4 | 0
41 | B5 | 1
42 | B6 | 3

Molecular target: T8, Lsb1, P53281
Assay: SPOT array
Conditions: median of control spots 388

Row | Binder | SPOT intensity
43 | B1 | 0
44 | B2 | 0
45 | B3 | 0
46 | B4 | 0
47 | B5 | 0
48 | B6 | 0

Molecular target: GST
Assay: SPOT array
Conditions: median of control spots 978

Row | Binder | SPOT intensity
49 | B1 | 0
50 | B2 | 0
51 | B3 | 1
52 | B4 | 1
53 | B5 | 0
54 | B6 | 0

Molecular target: Myo3, P36006
Assay: SPOT array
Conditions: median of control spots 468

Row | Binder | SPOT intensity
55 | B1 | 0
56 | B2 | 0
57 | B3 | 0
58 | B4 | 0
59 | B5 | 0
60 | B6 | 0

Molecular target: T9, Bud14, P27637
Assay: SPOT array
Conditions: median of control spots 956

Row | Binder | SPOT intensity
61 | B1 | 3
62 | B2 | 3
63 | B3 | 8
64 | B4 | 6
65 | B5 | 0
66 | B6 | 0

Molecular target: T10, Bzz1-2, P38822
Assay: SPOT array
Conditions: median of control spots 4538

Row | Binder | SPOT intensity
67 | B1 | 20
68 | B2 | 9
69 | B3 | 27
70 | B4 | 0
71 | B5 | 190
72 | B6 | 2

Molecular target: T11, Lsb3, P43603
Assay: SPOT array
Conditions: median of control spots 406

Row | Binder | SPOT intensity
73 | B1 | 0
74 | B2 | 0
75 | B3 | 0
76 | B4 | 0
77 | B5 | 1
78 | B6 | 0

Molecular target: Sho1, P40073
Assay: SPOT array
Conditions: median of control spots 1148

Chain of Sho1, P40073 (P40073 287-367): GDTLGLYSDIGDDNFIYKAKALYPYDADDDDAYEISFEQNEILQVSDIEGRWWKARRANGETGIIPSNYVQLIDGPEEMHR

Row | Binder | SPOT intensity
79 | B1 | 0
80 | B2 | 0
81 | B3 | 0
82 | B4 | 0
83 | B5 | 0
84 | B6 | 0

Molecular target: T12, Sla1-2, P32790
Assay: SPOT array
Conditions: median of control spots 712

Row | Binder | SPOT intensity
85 | B1 | 3
86 | B2 | 0
87 | B3 | 0
88 | B4 | 2
89 | B5 | 1
90 | B6 | 1

Molecular target: T13, Bbc1, P47068
Assay: SPOT array
Conditions: median of control spots 796

Row | Binder | SPOT intensity
91 | B1 | 0
92 | B2 | 0
93 | B3 | 0
94 | B4 | 0
95 | B5 | 0
96 | B6 | 0

Molecular target: Bem1-2, P29366
Assay: SPOT array
Conditions: median of control spots 4347

Chain of Bem1-2, P29366 (P29366 139-227): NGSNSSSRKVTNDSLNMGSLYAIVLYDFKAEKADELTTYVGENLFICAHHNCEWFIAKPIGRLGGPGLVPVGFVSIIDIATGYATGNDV

Row | Binder | SPOT intensity
97 | B1 | 0
98 | B2 | 2
99 | B3 | 11
100 | B4 | 0
101 | B5 | 0
102 | B6 | 1

Molecular target: T14, Cdc25, P04821
Assay: SPOT array
Conditions: median of control spots 969

Row | Binder | SPOT intensity
103 | B1 | 0
104 | B2 | 0
105 | B3 | 0
106 | B4 | 0
107 | B5 | 0
108 | B6 | 0

Molecular target: T15, Hse1, P38753
Assay: SPOT array
Conditions: median of control spots 1727

Row | Binder | SPOT intensity
109 | B1 | 0
110 | B2 | 1
111 | B3 | 10
112 | B4 | 0
113 | B5 | 0
114 | B6 | 2

Molecular target: T16, Cyk3, Q07533
Assay: SPOT array
Conditions: median of control spots 1451

Row | Binder | SPOT intensity
115 | B1 | 1
116 | B2 | 0
117 | B3 | 0
118 | B4 | 1
119 | B5 | 0
120 | B6 | 0

Molecular target: T17, Sla1-3, P32790
Assay: SPOT array
Conditions: median of control spots 5475

Row | Binder | SPOT intensity
121 | B1 | 0
122 | B2 | 1
123 | B3 | 14
124 | B4 | 0
125 | B5 | 0
126 | B6 | 0

Molecular target: T18, Boi2, P39969
Assay: SPOT array
Conditions: median of control spots 1161

Row | Binder | SPOT intensity
127 | B1 | 1
128 | B2 | 1
129 | B3 | 0
130 | B4 | 0
131 | B5 | 1
132 | B6 | 2

Molecular target: Bem1-1, P29366
Assay: SPOT array
Conditions: median of control spots 4282

Chain of Bem1-1, P29366 (P29366 55-141): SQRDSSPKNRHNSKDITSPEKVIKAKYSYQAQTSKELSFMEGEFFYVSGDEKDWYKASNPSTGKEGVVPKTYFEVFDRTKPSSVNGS

Row | Binder | SPOT intensity
133 | B1 | 3
134 | B2 | 0
135 | B3 | 3
136 | B4 | 0
137 | B5 | 3
138 | B6 | 0

Molecular target: T19, Myo5, Q04439
Assay: SPOT array
Conditions: median of control spots 471

Row | Binder | SPOT intensity
139 | B1 | 0
140 | B2 | 0
141 | B3 | 0
142 | B4 | 1
143 | B5 | 1
144 | B6 | 1

Molecular target: Rvs167, P39743
Assay: SPOT array
Conditions: median of control spots 2707

Chain of Rvs167, P39743 (P39743 419-482): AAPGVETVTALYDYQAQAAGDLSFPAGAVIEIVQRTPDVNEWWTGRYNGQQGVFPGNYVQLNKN

Row | Binder | SPOT intensity
145 | B1 | 3630
146 | B2 | 1500
147 | B3 | 3340
148 | B4 | 514
149 | B5 | 0
150 | B6 | 151

Molecular target: T20, Lsb4, P32793
Assay: SPOT array
Conditions: median of control spots 397

Row | Binder | SPOT intensity
151 | B1 | 0
152 | B2 | 0
153 | B3 | 1
154 | B4 | 0
155 | B5 | 0
156 | B6 | 1

Molecular target: T21, Pin3, Q06449
Assay: SPOT array
Conditions: median of control spots 2171

Row | Binder | SPOT intensity
157 | B1 | 4
158 | B2 | 8
159 | B3 | 17
160 | B4 | 6
161 | B5 | 0
162 | B6 | 19
